Experiment: soluble on expression in E. coli; label from the status in PepcDB or PDB records

| Sequence | soluble on expression in E. coli |
| --- | --- |
| MIYIIGSGIAGLSAGVALRRAGKKVTLISKRIDGGSTPIAKGGVAASVGSDDSPELHAQDTIRVGDGLCDVKTVNYVTSEAKNVIETFESWGFEFEEDLRLEGGHTKRRVLHRTDETGREIFNFLLKLAREEGIPIIEDRLVEIRVKDGKVTGFVTEKRGLVEDVDKLVLATGGYSYLYEYSSTQSTNIGDGMAIAFKAGTILADMEFVQFHPTVTSLDGEVFLLTETLRGEGAQIINENGERFLFNYDKRGELAPRDILSRAIYIEMLKGHKVFIDLSKIEDFERKFPVVAKYLARHGHNYKVKIPIFPAAHFVDGGIRVNIRGESNIVNLYAIGEVSDSGLHGANRLASNSLLEGLVFGINLPRYVDSSWEGISTDDGIVHSVRISGNKTLSLKEIRRINWENVGIIRNEEKLVKAINTYSSSTQNEAIISYLTALAAEIRKESRGNHFREDYPYKDPNWEKRIYFKLVV | soluble |
| MGHHHHHHSHGVSAAVTSMSVPTPIYQTSSGQYIAIAPNGALQLASPGTDGVQGLQTLTMTNSGSTQQGTTILQYAQTSDGQQILVPSNQVVVQTASGDMQTYQIRTTPSATSLPQTVVMTSPVTLTSQTTKTDDPQLKREIRLMKNREAARECRRKKKEYVKCLENRVAVLENQNKTLIEELKTLKDLYSNKS | not soluble |
| LLVDKKVSVNDVDIGLISLQYLNIIANYTNKKAIEKITDYLVITSKILAKKADNLLNDHQEESVLEYDLATNNFRDKMIANLVEHKRYCDSLGEFEKLRVNRLAYFSKANEMEQFIKTANDQLVTVEDQLPNYISVLKLFHAMNKLLEMRLSSLLTNKNITIKELSVEQVQKELVLAIKQFNYQTVSLKRVLLKLN | not soluble |
| MLHITLHQLKIFESVARLLNFTHAAEELHLTQPAVSIQIKRLEEMVALPLFEQIGKRVHLTEAGKELFHYSRGITRQLADMELALDELKGLERGKLSISVVSTANYFVPNLLAKFCQRYPGITISLHVSNRENVLKQLSDNIMDLAIMGQPPEGLDITSESFMENPLVIIAPPEHPLCGQKQIPVKRLEQEIFLVREPGSGTRNAMERFFAHEKISIQKGMEADTAEAIKQAIQAGMGLGIMSLHTIRLELEAGRLKILDIQGLPIMRYWNVVHQKNKRLSNISSVFKQFLLNEAADLVALEYPHRNTT | not soluble |
| MDKVLDSALLSSANKRKGILAIGAHPDDIELGCGASLARLAQKGIYIAAVVMTTGNSGTDGIIDRHEESRNALKILGCHQTIHLNFADTRAHLQLNDMISALEDIIKNQIPSDVEIMRVYTMHDADRHQDHLAVYQASMVACRTIPQILGYETPSTWLSFMPQVFESVKEEYFTVKLAALKKHKS | soluble |
| MLLQELHIYSEQSSSNTKVSIKNKDGEILFEYCYSNDAIPTFNPIELLRLSLEGDIGVLFQMKTSISQKSKKDDFRISCEQSRSETSRMNQ | not soluble |
| MVKAQLQKLIEQVATEHDLPERVVERALKNAIITAIRKEKKIRDELEVEFTDEGIKVYVVRRKGNKKFKFPLDISPEDLNRLAAYAAKEEFYKELERAEQERGYLEFKELEGEIVYGIVRKVLENGDVIVDLGRIDAILPKREQLPTDNFKTGDKVKALLLEVRKRRGEPVLILSRTHPNFLRKLLEQEVPEIKEGLVEIKAVARIPGERAKVAVEAKEMKMDPVGIVVGLKGMRIQKVSEELGGEKIDVIRWSDDIAELIKRALAPAHPEKIKLFPYEKRAEVAVPEEELSLAIGKKGINVKLASKLTGWHIDVLSTKDFEKLEELRKKEDEGQTS | soluble |
| MSKYWSNIVKKISPYVPGEQPKDKKYIKLNTNENPYPPSEKVLKAISAAVNESLRLYPDPACESLRNTLAKYYGIKASEVFVGNGSDELLAFSFMAFFNPGDTIIFPDITYSFYEVYSSMFSVNYRLIPLDDEFNVPVEEFFTENDGIILANPNAPTGKALPLQSIRKILEKNDDKVVIIDEAYVDFGARSSVPLIKEFENLLVIQTLSKSRALAGLRVGFALGSEQLIEGLDRVKNSINSYTLDRLALIGAEEAIKDHEYFCEIRDKIINTREWVSKKLSSMGFKVIESKANFIFISHPKINGRLLFEKYKENNILVRHFNSPRIDNFLRVSIGSDEEMNIFCEKTKEIIESLN | soluble |
| MGSDKIHHHHHHMFPTFFGISSIHGGQMAHSVSQAYLHISPPQVIGCHDGTTFNSYTNDDSARRYNSKSANKAPPAGQAFGCHESTTFKRTQQVNTPLDVIHPNSNIPNLPPPAFGKCPYPPWQHLDAANTIFIFPPLTVTLITNSRRVSAAAYDSNAIESVMQGTLRKMRTRLDEQGLANYQLLVGDNEVELNPFIGSSIKLVHTGNIFCCNCGKKTKKSYSQGHCFVCMKKLASCDMCIMKPETCHFAEGTCREPEWGEANCFVPHYVYLSNTSGLKVGITRHTQLPTRWIDQGATQGLPILKVSSRQLSGLIEVELAKMIADKTNWRAMLKGNADPLPLKQHAEELLPQIEQHIHSLAMAHGEYAIERLNEEIVAIDYPVSEFPTKIASHNFDKDPVVSGTLLGIKGQYLIFDTGVINLRKFTAYEVSFEAE | not soluble |
| MEFEFIKNTLLGEYAVRCNMEHQIVGRWLQEEIGQDLAKLKHVLTLIDKAEQSPAQEFLWTGREISLLVQGDEITVQENALAYESEHELETDFALYDSESIAACGREDFVALLTQWQSFIQNQGRF | not soluble |
| GLGRKPHTRILSFEKLEADKFICQHLNLSLGEAVFKLSRLRIADNEPLMVEDTYLPVKFFLSLTDQLLRSKPLYDLFSEDFKQTVRLADEELYASIASKEDAKLLMIPEGAPVLHLARQTYNMKNEIIEFTLSVARADQFHYQIRHIRNS | soluble |
| AIAADGQMPFSCHYPSRLRRDPFRDSPLSSRLLDDGFGMDPFPDDLTASWPDWALPRLSSAWPGTLRSGMVPRGPTATARFGVPAEGRTPPPFPGEPWKVCVNVHSFKPEELMVKTKDGYVEVSGKHEEKQQEGGIVSKNFTKKIQLPAEVDPVTVFASLSPEGLLIIEAPQVPPYSTFGESSFNNELPQDSQEVTCT | soluble |
| MSLTAPLRAGQMNFYDEPYNPVLNLHIQPSVKDENQRSTWPIIDTSNTSTQIARAHFEKHPPNNLRKSNFFHFVIALYDRNSQPIEVERTQFAGFVEKEKEVDGQDTRNGIHYRLSLMFQNGIRSEHDLFVRLIDSSTKQAITYEGQDKNPEMCRVLLTHEVMCSRCCEKKSCGNRNETPSDPVIIDRFFLKFFLKCNQNCLKNAGNPRDMRRFQVVLCSSARIDGPLLAVSDNMFVHNNSKHGRRTKRTDASDDSEYSESAELPSSVPVIKALFPSEGWIQGGTQVVLIGENFFEGLQVAFGTASPNWGESVQLISPHAIRVTTPPKHSAGPVDVTLQYKSKTYSRGTPLRFSYITLAEPGIEYGFQRLQKLLPKYPGDPERLPKDQILKRAAELAEALYNRTSTESLSSYYHTQFDATSDYAARTHTSPRSTLPYGAGPPALSSAVYQTSYPTVNATPAANFLNTQTGFATFGAVNPFAATLQSSSRLS | not soluble |
| MAATITDDIVATVLESIEEKSYEDEKEKAGMIKDEANQFFKDQVYDVAADLYSVAIEIHPTAVLYGNRAQAYLKKELYGSALEDADNAIAIDPSYVKGFYRRATANMALGRFKKALTDYQAVVKVCPNDKDARAKFDECSKIVRRQKFEAAISTDHDKKTVAETLDINAMAIEDSYDGPRLEDKITKEFVLQLIKTFKNQQKLHKKYAFKMLLEFYNYVKSLPTMVEITVPTGKKFTICGDVHGQFYDLCNIFEINGYPSETNPYLFNGDFVDRGSFSVETIFTMIGFKLLYPNHFFMSRGNHESDVMNKMYGFEGEVKAKYTQQMCDMFTETFCWLPLCHLINEKIFVCHGGLFKEDGVTLEDIRKTDRNRQPPDEGIMCDLLWEKNWKNLKILYPDGKINKNSNCQPKTCKNASDPQPINGRSPSKRGVGCQFGPDVTSKWCETNGIEYVVRSHEVKPEGYEMHHNGQCFTVFSAPNYCDQMNNKGAFITITGDNLTPRFTPFDAVPHPKLPPMAYANSLFGFN | not soluble |
| NKYYKLGEIAQKVLVGGEKPADFSKEKNEVYKYPILSNNSKAEEFLVYSKTFRVEEKSITVSARGTIGAVFYRDFAYLPAVSLICFVPKEEFDIRFLFHALRAIKFKKQGSATGQLTVAQFKEYGIHVPSLKKQKEIAAILDPLYS | not soluble |
| MEKEKSLMKKQSKKSKKQNIEINYLDLIPVRSEELHWHKDIKGRVILDVENTGWFNKIAQTVFNKPQYTKVHLDAQGTFIWPLIDGKRTVTDIAALVKEEFGEAAEPLYPRIIKYFQIVESYHFIKFANMPSK | not soluble |
| GSAMASNAVLYKSNHNVVYSCKYHIVWCPKYRRKVLVGAVEMRLKEIIQEVAKELRVEIIEMQTDKDHIHILADIDPSFGVMKFIKTAKGRSSRILRQEFNHLKTKLPTLWTNSCFISTVGGAPLNVVKQYIENQQNSNRPKQKEKWKSYVDNLQTKAL | soluble |
| MGSDKIHHHHHHMNRAATLAAYLTEKNWMSQPVSAGQVSFLAAGEYNENWLVQCGGRAAVLRINHGSQLGLRNQSEYEFSVLRHVASSGLTPQPYALDPLPWKHGPGKGAMLMEYIPGTPPDYRLHAADAARLFARVHGCPLPPRGDMIVQPDPVRDIARESTGLLHRQPDHPRSDIRTRLLNYRDTVLRLADDTAQLFAGEPQVITNTEVNSGNFIVLPPQHPRRGNEQAGVALCLVDWEKAVISCCHQDLGHFLVPTTTRWKTDFTFDAQSRTDFLRAYLQARHGSVDADALEALHLRTRVLERTILLRALSWCFMAWYEYSRGDRTLRNEFTYGRITSYLENIECILKYGE | not soluble |
| MNGRSLIFSILFVFSELKCDDTDENDQHGTIYQFQAKNIDGKMVSMEKYRDKVVLFTNVASYCGYTDSNYNAFKELDGIYREKGFRVAAFPCNQFEKQEPETEGKILDFVKSSYTYAPDMYSKIEVNGQNTHPLWKFLKKERGSSLSADIPWNFSKFLVDKNGHVVGRYSHSVNPIDLEEEISRLLNS | not soluble |
| MKSLITAGLVFSLIASSYSAQAEEKQSGDLAADIGAVGIPVIAGSIALYKEDYDGFWMFAKGATYTLAATQALKYTVKEERPNGEDNLSFPSGHSSSAFQGASYLQFRYGWEYGVPAYIGASLVGYSRVENEHHYWRDVIAGAVLATTIQYLVTDKYLDSNSVMIAPVINDDHVGIAASFSF | not soluble |
| MAHHHHHHMAAPSHQHSLVLERSTCHHYYHCVLYDILFDLPVREIAAQVVPCKDSNIVQRLTSADCRVVPHQLHVYKEPLEKKFGYVSFFVHRAPHSSTAADDVHRLVCEWVAVDLASQLATVQCKVQLAQPPECHSSEPFLNAFRLKCPLLDPTLAADTKKLETFVLTRVRFGQHCGNASVNQLNAVHCDDAKSAASAGSCGTETEMCTDDGLTATEGELDAGARSATRTLDEHVWKCVGTFLIASLSPKELVWLKKQLPSFPPLRIANGDMDTAYCDEAKLAQFFETSLAPLFTVDEVVEAAALNTVNSEA | not soluble |
| MGSDKIHHHHHHMSHLQTSNLPFKQRVDQQVHNEIMRKAVVNAQETIGQNRQKMVDELGHWEEWRDLSKQFRNHVLANLDAYLYQLSEKVKQNGGHVFFAETAEEATAYIRKVALAQKAKTIVKSKSMVTEEIGMNHVLEAEGINVVETDLGEYLLQIVGDKPSHIVVPAIHKDRHRIRKELHEKLGYTGSEQPEEMNAFVRKTLRKDFLNADIGISGCNFAVAETGSVCLVTNEGNLRLATTLPKTHIAVMGMERLAPTFKEVDALITMLCRSAVGAKLTAYNTWLTGPRLEGETDGPEDFHLVIVDNGRSKILASEFAEVLRCIRCGACLNTCPAYRQIGGHGYGSIYPGPIGAVISPLLGGYDEFKDLPYACSLCTACNSVCPVKIPLAQLILKHREKLVEEGRTPKGEQLAIKGFSFANSHPSLWGAGVKIGAKIAAKFIKNGKAPLQPGALGEWTKARDLPNPEGQSFREWFANRK | not soluble |
